According to patent US20050042747A1, “Hivgp120-induced bob/gpr15 activation” (priority 2001, published 2005):

B1: MIP-1α: natural ligand of CCR5 (protein, UniProt P10147 24-92, looked up)
C-C motif chemokine 3: SLAADTPTACCFSYTSRQIPQNFIADYFETSSQCSKPGVIFLTKRSRQVCADPSEEWVQKYVSDLELSA
B2: RANTES: natural ligand of CCR5 (protein, UniProt P13501 24-91, looked up)
C-C motif chemokine 5: SPYSSDTTPCCFAYIARPLPRAHIKEYFYTSGKCSNPAVVFVTRKNRQVCANPEKKWVREYINSLEMS
B3: MIP-1β: natural ligand of CCR5 (protein, UniProt P13236 24-92, looked up)
C-C motif chemokine 4: APMGSDPPTACCFSYTARKLPRNFVVDYYETSSLCSQPAVVFQTKRSKQVCADPSESWVQEYVYDLELN
modifications: ends and bridges not checked
notes: natural ligand of CCR5

system: HT-29 cells; assay: Calcium signaling in HT-29 cells (Fluo 4, confocal microscope); type: cell-based, human
Procedure: HT-29 cells (from ATCC) were grown in DMEM-F12 with 10% bovine calf serum, and were used 24-48 hours after plating. The Ghost (3) cells were obtained from the AIDS Research and Reference Reagent Program, and were grown DMEM with 10% bovine calf serum supplemented with 500 μg/ml G418, 100 μg/ml hygromycin, and 1 μg/ml puromycin.^27 These cells were used 24 to 96 hours after plating.
Calcium studies were done on HT-29 cells and Ghost (3) cells loaded with Fluo 4. The cells were placed in Locke's buffer containing 5 μg/ml Fluo 4 AM ester (Molecular Probes) for 20 to 30 minutes, then in Locke's buffer for an additional 30 minutes before testing. Various concentrations of gp120IIIB (X4 trophic), gp120CM235 (R5 trophic), gp120mN (X4 trophic), gp12093TH975 (nonsyncytium-inducing primary isolate from an asymptomatic subject, trophism undetermined but likely R5), and gp120SF2 (X4R5 trophic), ranging from 10 nM to less than 1 pM, were added in Locke's buffer.^6 The gp120 proteins were obtained from the AIDS Research Reagent Referral Program. Some HT-29 cells were given one of the following pretreatments: 50 μg/ml anti-Bob37 overnight, 1 μg/ml pertussis toxin overnight, or 4.6 μg/ml U73122 for one hour. With the HT-29 cells only, similar tests were also performed with SDF-1, MIP-1α, MIP-1β, and RANTES rather than gp120. The cells were visualized every 4 seconds in a confocal microscope, using 488 nm argon laser excitation and detection filters appropriate for fluorescein-like dyes.
For the first two or three days after plating, gp120 induces an immediate (within 4 seconds) calcium flux in undifferentiated HT-29 cells. The cells had previously been loaded with Fluo-4 AM ester (Molecular Probes, Eugene Oreg.) 5 micrograms/ml in the presence of Pleuronic F-127 0.02% in Locke's buffer for 30 minutes, then incubated at room temperature for an additional 30 minutes. Gp120IIIB was added while the cells were on an inverted confocal microscope using a 488 nm argon laser, with detection filters suitable for fluorescein-like dyes. […]

Question: How did the “calcium signaling in HT-29 cells, in words” value (“calcium signaling” below) turn out when B1 was run?
Answer: induced similar calcium signaling

Question: Which “calcium signaling” value does the source give for B2 here?
Answer: induced similar calcium signaling

Question: For B3, which “calcium signaling” value is on record?
Answer: induced similar calcium signaling
